The target of test [1] is SARS-CoV-2 Spike (S) trimer (SARS-CoV-2) (UniProt P0DTC2). Briefly: ELISA on coated S trimer, 1:50. (An ELISA detects its analyte on a solid surface through an enzyme-linked reagent.)
Test [2] deals with SARS-CoV-2 spike S1 protein (SARS-CoV-2) (UniProt P0DTC2).
The target of test [3] is SARS-CoV-2 spike receptor-binding domain (RBD) (SARS-CoV-2) (UniProt P0DTC2).
In test [4] the target is SARS-CoV-2 Wuhan-1 full-length Spike protein on pseudovirus (SARS-CoV-2) (UniProt P0DTC2). In words: cell-based or functional assay.
In test [5] the target is SARS-CoV-1 spike protein on pseudovirus (SARS-CoV-1) (UniProt P59594). Briefly: cell-based or functional assay.
Test [6] deals with SARS-CoV-2 spike protein on fully infectious (replication-competent) SARS-CoV-2 virus (SARS-CoV-2) (UniProt P0DTC2). Briefly: cell-based or functional assay.
Test [7] addresses SARS-CoV-2 Spike (S) trimer (SARS-CoV-2) (UniProt P0DTC2). In words: SPR binning (Carterra LSA), antibody amine-coupled to the chip as ligand.

The results in this text go back to US20240327505A1.

Usually Kd stands for a measure of binding affinity in units of concentration. Higher therefore signals lower affinity. As a reminder, the koff is the rate constant with which the complex falls apart. Read a high koff as fast dissociation. Usually kon stands for a measure of how fast the partners come together.

In test [1], CB-6 (AB-009264) (antibody) registered an OD 450 nm of 2.81 OD. In test [2], this substance showed a dissociation constant (Kd) of 27.7 nM, a Response of 0.361 nm, a koff of 0.0107 s⁻¹ and an on-rate constant (kon) of 386000 M⁻¹ s⁻¹. In test [3], the Kd was 4.77 nM, the Response is 0.58 nm, the koff amounted to 0.000844 s⁻¹ and the kon came to 177000 M⁻¹ s⁻¹. The same substance returned a Pseudovirus Neturalization in test [4] of 0.012 µg/mL. Moreover, the Pseudovirus Neturalization in test [5] is greater than 50 µg/mL. The substance further yielded a Neutralization (Infectious virus; (µg/mL)) in test [6] of 0.13 µg/mL.
“REGN10933 | Casirivimab (AB-010156) (antibody)” returned a Pseudovirus Neturalization in test [5] greater than 50 µg/mL.
In the case of CR3022 (AB-009073) (antibody), the Pseudovirus Neturalization in test [4] is greater than 50 µg/mL; in test [5], 2.61 µg/mL. In test [6], this substance had a Neutralization (Infectious virus; (µg/mL)) greater than 50 µg/mL. Moreover, the response as ligand (RU) in test [7] is less than 20 RU.
As to COVA1-21 (AB-010159) (antibody), the Pseudovirus Neturalization was 21 µg/mL in test [4] and greater than 50 µg/mL in test [5].
For the substance “LY-CoV555 | Bamlanivimab (AB-010160) (antibody)”, in test [5], the Pseudovirus Neturalization was greater than 50 µg/mL.
CA-1 (AB-009265) (antibody) had an OD 450 nm in test [1] of 2.74 OD. In test [2], this substance showed a Kd of 43.6 nM, a Response of 0.27 nm, an off-rate constant (koff) of 0.0127 s⁻¹ and an association rate constant (kon) of 291000 M⁻¹ s⁻¹. In addition, in test [3], the equilibrium dissociation constant (Kd) was 5.72 nM, the Response worked out at 0.53 nm, the koff turned out to be 0.000681 s⁻¹ and the on-rate constant (kon) came out at 119000 M⁻¹ s⁻¹. The substance also registered a Pseudovirus Neturalization in test [4] of 0.266 µg/mL. The same substance gave a Pseudovirus Neturalization in test [5] greater than 50 µg/mL. The substance further returned a Neutralization (Infectious virus; (µg/mL)) in test [6] of 2.46 µg/mL.
As to “Anti-Nucleocapsid (Neg Control) (antibody)”, the Pseudovirus Neturalization in test [4] and in test [5] was greater than 50 µg/mL in each case.
The substance “REGN10987 | Imdevimab (AB-010157) (antibody)” came in with a Pseudovirus Neturalization in test [5] greater than 50 µg/mL.
